Seven molecules from US6623741 can be followed below.

Values joined by “and” are separate entries in the source; they are usually repeats but may differ in a detail not shown here. Identical values can stand only once. Like-named read-outs stand apart in the source and are kept apart here.

Test [1] has as its target T1581 (respiratory syncytial virus (strain A2)). The experiment in a line: sedimentation equilibrium, 35 µM peptide (self-association).
The target is the same in test [2]. The experiment in a line: sedimentation equilibrium, 35 µM peptide, single ideal species fit (self-association); monomer 5007.
Test [3] has as its target T1584 (respiratory syncytial virus (strain A2)). The experiment in a line: sedimentation equilibrium, 35 µM peptide (self-association).
For test [4] the target is unchanged. Nature of the test: sedimentation equilibrium, 35 µM peptide, single ideal species fit (self-association); monomer 5506.
In test [5] the target is T1, MF-IV (MF5.1): E. coli maltose binding protein fused to RSV F protein residues 142-302 (E. coli; respiratory syncytial virus (strain A2)), P03420.
T1 chain: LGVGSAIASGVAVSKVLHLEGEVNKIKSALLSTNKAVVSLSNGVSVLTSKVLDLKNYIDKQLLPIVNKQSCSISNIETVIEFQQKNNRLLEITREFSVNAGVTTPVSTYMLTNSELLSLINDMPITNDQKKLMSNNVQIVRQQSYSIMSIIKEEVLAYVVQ
The experiment in a line: competitive binding assay (B50) on the MF5.1 fusion protein; reference T112.

The target in test [6] is T1, MF-IV (MF5.1): E. coli maltose binding ….
Test [7] deals with T1582 (respiratory syncytial virus (strain A2)). Nature of the test: sedimentation equilibrium, 35 µM peptide (self-association).
For test [8] the target is unchanged. Nature of the test: sedimentation equilibrium, 35 µM peptide, single ideal species fit (self-association); monomer 4897.
Test [9] concerns the target T1623 (respiratory syncytial virus (strain A2)). The experiment in a line: sedimentation equilibrium, 35 µM peptide (self-association).
Test [10] shares this target. The experiment in a line: sedimentation equilibrium, 35 µM peptide, single ideal species fit (self-association); monomer 5750.
The target of test [11] is T1772 (respiratory syncytial virus (strain A2)). The experiment in a line: sedimentation equilibrium (self-association).
The target is the same in test [12]. Nature of the test: sedimentation equilibrium, value at 25 µM, single ideal species fit (self-association); monomer 5393.
Test [13] has the same target.
Test [14] shares this target. The source holds these as a separate data set.
For test [15] the target is unchanged. The source holds these as a separate data set.
The target is the same in test [16]. This is another data set of the same source.
For test [17], the target named is T112 (respiratory syncytial virus (strain A2)).
Test [18] deals with T1772 (respiratory syncytial virus (strain A2)). The source holds these as a separate data set.

In test [1], VLHLEGEVNKIKSALLSTNKAVVSLSNGVSVLTSKVLDLKNYIDKQ (modifications not checked) [T1581] displayed a N-mer (weight-averaged molecular weight / monomer molecular weight) of 1.8. The molecule also returned a weight-averaged molecular weight in test [2] of 9120 g/mol.

B1: T1584 (peptide)
peptide: AVSKVLHLEGEVNKIKSALLSTNKAVVSLSNGVSVLTSKVLDLKNYIDKQL
modifications: not checked
In the case of B1, the N-mer (weight-averaged molecular weight / monomer molecular weight) in test [3] was found to be 2.1. For the same molecule, the weight-averaged molecular weight in test [4] was found to be 11700 g/mol.
DEFDASISQVNEKINQSLAFIRKSDELL (modifications not checked) [T67] showed a fold lower binding affinity than T112 in [5] of 5 fold. Moreover, the binding affinity in test [6] turned out to be 5 nM.
In the case of VLHLEGEVNKIKSALLSTNKAVVSLSNGVSVLTSKVLDLKNYIDK (modifications not checked) [T1582], the N-mer (weight-averaged molecular weight / monomer molecular weight) in test [7] turned out to be 1.5. In test [8], the weight-averaged molecular weight stood at 7520 g/mol.

B2: T1623 (peptide)
peptide: SGVAVSKVLHLEGEVNKIKSALLSTNKAVVSLSNGVSVLTSKVLDLKNYIDKQL
modifications: not checked
B2: in test [9], the N-mer (weight-averaged molecular weight / monomer molecular weight) turned out to be 2.2. The weight-averaged molecular weight in test [10] was 12900 g/mol.
The molecule AVSKVLHLEGEVNKIKSALLSTNKAVVSLSNGVSVLTSKVLDLKNYIDKQ (modifications not checked) [T1772] displayed a N-mer (weight-averaged molecular weight / monomer molecular weight) in [11] of 2.4. Moreover, the weight-averaged molecular weight in [12] came to 12900 g/mol; in [13] it was 12900 Da.
Consider VFPSDEFDASISQVNEKINQSLAFIRKSDELLHNV (modifications not checked) [T112], for which the weight-averaged molecular weight of the mixture in [14] was 21100 Da; in test [15], 15300 Da and 22000 Da and 17300 Da. Moreover, in test [16], the melting temperature (Tm) of the peptide mixture was found to be 87 ° C. Also, in [17], the weight-averaged molecular weight was determined as 3980 Da. Further, the helicity of the peptide mixture in [18] stood at 86%.
